The results in this text go back to patent US20260207767A1 (ANAVEON, published 2026).

In test [1] the target is T1, IL-2R CD122-CD132 on Jurkat-PD1+CD122+ cells (UniProt P14784 27-551; P31785 23-369).
T1 sequence (looked up) 1: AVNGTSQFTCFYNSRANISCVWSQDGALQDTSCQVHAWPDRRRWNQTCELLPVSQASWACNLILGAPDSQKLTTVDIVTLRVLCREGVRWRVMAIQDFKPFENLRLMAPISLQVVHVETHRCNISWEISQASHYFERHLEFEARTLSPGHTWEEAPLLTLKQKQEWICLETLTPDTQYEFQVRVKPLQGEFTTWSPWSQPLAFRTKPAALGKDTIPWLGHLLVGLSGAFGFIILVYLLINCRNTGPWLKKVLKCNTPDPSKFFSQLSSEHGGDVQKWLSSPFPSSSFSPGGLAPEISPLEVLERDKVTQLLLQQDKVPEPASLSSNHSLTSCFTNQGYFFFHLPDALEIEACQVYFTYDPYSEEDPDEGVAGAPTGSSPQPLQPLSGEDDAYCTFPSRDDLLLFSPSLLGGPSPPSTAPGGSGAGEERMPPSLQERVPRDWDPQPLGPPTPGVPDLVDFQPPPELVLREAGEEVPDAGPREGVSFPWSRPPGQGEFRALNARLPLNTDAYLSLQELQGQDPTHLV
T1 sequence (looked up) 2: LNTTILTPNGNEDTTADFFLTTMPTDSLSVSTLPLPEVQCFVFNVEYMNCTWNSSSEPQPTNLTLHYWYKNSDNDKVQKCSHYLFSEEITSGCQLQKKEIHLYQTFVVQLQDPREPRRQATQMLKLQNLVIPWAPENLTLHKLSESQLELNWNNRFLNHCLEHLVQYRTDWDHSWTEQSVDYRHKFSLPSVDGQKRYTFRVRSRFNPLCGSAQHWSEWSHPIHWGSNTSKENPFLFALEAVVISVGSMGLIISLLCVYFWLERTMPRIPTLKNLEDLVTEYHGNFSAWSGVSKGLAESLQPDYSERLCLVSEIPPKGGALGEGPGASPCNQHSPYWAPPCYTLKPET
Briefly: cell-based or functional assay.

Test [2] has as its target T2, recombinant hPD-1 (construct not stated) (human, UniProt Q15116 25-167, limits assumed).
T2 construct: also called huPD-1; Human PD1
Briefly: BLI, supernatants. From the text:
In order to remove an N-glycosylation site present in the CDR-L1, mutations were inserted in the CDR-L1 of 21A08. The first asparagine ([…], N) in CDR-L1, was replaced by a serine (Ser, S), Glutamine (Gln, Q), or Alanine (Ala, A).
(BLI is a label-free optical method that tracks binding on a fibre tip over time.)

Test [3] addresses T3, cynoPD-1 His (AcroBiosystems PD1-C5223) (cynomolgus monkey, UniProt B0LAJ3 25-170).
T3 construct: also called cPD-1; cynomolgus PD-1 His-tagged
Description: SPR, Ab captured, PD-1 analyte. The procedure:
(§1) 10 mM glycine (pH 1.5) as regeneration buffer was injected to flow cells following every dissociation phase.
For orientation: In SPR one partner is held on a chip, and binding of the other changes the refractive index at the surface.

The target in another test is T4, hPD-1 His-tagged (human, UniProt Q15116 25-167).
T4 construct: also called recombinant hPD-1 (AcroBio)
Description: SPR, Ab captured, PD-1 analyte. The procedure: as §1

T3 sequence (B0LAJ3 entry or part of it limits assumed): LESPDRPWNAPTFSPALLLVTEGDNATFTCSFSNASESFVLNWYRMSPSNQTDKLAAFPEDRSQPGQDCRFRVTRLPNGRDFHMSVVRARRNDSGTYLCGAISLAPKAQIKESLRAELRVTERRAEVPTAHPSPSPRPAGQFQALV
T4 sequence (Q15116 25-167 limits assumed): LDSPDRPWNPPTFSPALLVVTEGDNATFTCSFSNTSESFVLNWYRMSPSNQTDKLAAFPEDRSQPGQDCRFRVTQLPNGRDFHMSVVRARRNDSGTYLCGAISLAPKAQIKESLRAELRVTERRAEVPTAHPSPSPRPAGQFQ
T2 sequence (Q15116 25-167 limits assumed): as above

B1: LTJ498 (bispecific antibody, human IgG1, lambda, L234A L235A)
heavy 1: EVQLLESGGGLVQPGGSLRLSCAASGFTFSINAMTWVRQAPGKGLEWVSTISGSGFSTYYADSLKGRFTISRDNSKNTLYLQMNSLRAEDTAVYYCAKEVYGDYWGQGTLVTVSSASTKGPSVFPLAPSSKSTSGGTAALGCLVKDYFPEPVTVSWNSGALTSGVHTFPAVLQSSGLYSLSSVVTVPSSSLGTQTYICNVNHKPSNTKVDKRVEPKSCDKTHTCPPCPAPEAAGGPSVFLFPPKPKDTLMISRTPEVTCVVVDVSHEDPEVKFNWYVDGVEVHNAKTKPREEQYNSTYRVVSVLTVLHQDWLNGKEYKCKVSNKALAAPIEKTISKAKGQPREPQVYTLPPSREEMTKNQVSLTCLVKGFYPSDIAVEWESNGQPENNYKTTPPVLDSDGSFFLTSKLTVDKSRWQQGNVFSCSVMHEALHNHYTQKSLSLSPGK
light: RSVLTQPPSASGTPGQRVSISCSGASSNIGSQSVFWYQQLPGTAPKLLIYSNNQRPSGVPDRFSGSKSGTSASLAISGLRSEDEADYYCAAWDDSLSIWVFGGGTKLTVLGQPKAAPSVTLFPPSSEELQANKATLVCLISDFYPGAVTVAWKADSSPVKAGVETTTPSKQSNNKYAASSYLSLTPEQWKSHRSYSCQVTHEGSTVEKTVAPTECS
heavy 2: AIRLTQSPSSFSASTGDRVTITCKASQSVDYGGGNFHLRPRDLISNINVIVLELKGSETTFMCEYADETATIVEFLNRWITFSQSIISTLTPTSSSTKKTQLQLEHLLLDLQMILNGINNYKNPKLTRMLTFKFYMPKKATELKHLQCLEEELKPLEEVLNLAQSKGGGGDSYMNWYQQKPGKAPKLLIYAASNLESGVPSRFSGSGSGTDFTLTISSLQSEDFATYYCQQSNEDPYTFGGGTKVEIKGGGGSGGGGSGGGGSEVQLVQSGAEVKKPGESLKISCKGSGYAFTNYLIEWVRQMPGKGLEWMGVINPGSGGTNYNEKFKGQVTISADKSISTAYLQWSSLKASDTAMYYCARWRGEGYYAYFDVWGQGTTVTVSSGGGGSGGGGSEVQLLESGGGLVQPGGSLRLSCAASGFTFSINAMTWVRQAPGKGLEWVSTISGSGFSTYYADSLKGRFTISRDNSKNTLYLQMNSLRAEDTAVYYCAKEVYGDYWGQGTLVTVSSASTKGPSVFPLAPSSKSTSGGTAALGCLVKDYFPEPVTVSWNSGALTSGVHTFPAVLQSSGLYSLSSVVTVPSSSLGTQTYICNVNHKPSNTKVDKRVEPKSCDKTHTCPPCPAPEAAGGPSVFLFPPKPKDTLMISRTPEVTCVVVDVSHEDPEVKFNWYVDGVEVHNAKTKPREEQYNSTYRVVSVLTVLHQDWLNGKEYKCKVSNKALAAPIEKTISKAKGQPREPQVYTLPPSREEMTKNQVSLYCLVKGFYPSDIAVEWESNGQPENNYKTTPPVLDSDGSFFLYSKLTVDKSRWQQGNVFSCSVMHEALHNHYTQKSLSLSPGK
B1: the “EC50 value for pSTAT5 induction, Jurkat-PD-1+CD122+ cells” value (from here on “EC50 value for pSTAT5 induction”) in test [1] stood at 0.24 nM.

B2: XWY176 (bispecific antibody, human IgG1, kappa, lambda, L234A L235A)
heavy 1: EVQLLESGGGLVQPGGSLRLSCAASGFTFSINAMTWVRQAPGKGLEWVSTISGSGFSTYYADSLKGRFTISRDNSKNTLYLQMNSLRAEDTAVYYCAKEVYGDYWGQGTLVTVSSASTKGPSVFPLAPSSKSTSGGTAALGCLVKDYFPEPVTVSWNSGALTSGVHTFPAVLQSSGLYSLSSVVTVPSSSLGTQTYICNVNHKPSNTKVDKRVEPKSCDKTHTCPPCPAPEAAGGPSVFLFPPKPKDTLMISRTPEVTCVVVDVSHEDPEVKFNWYVDGVEVHNAKTKPREEQYNSTYRVVSVLTVLHQDWLNGKEYKCKVSNKALAAPIEKTISKAKGQPREPQVYTLPPSREEMTKNQVSLTCLVKGFYPSDIAVEWESNGQPENNYKTTPPVLDSDGSFFLTSKLTVDKSRWQQGNVFSCSVMHEALHNHYTQKSLSLSPGK
light 1: not shown
heavy 2: EVQLVQSGAEVKKPGESLKISCKGSGYAFTNYLIEWVRQMPGKGLEWMGVINPGSGGTNYNEKFKGQVTISADKSISTAYLQWSSLKASDTAMYYCARWRGEGYYAYFDVWGQGTTVTVSSASTKGPSVFPLAPSSKSTSGGTAALGCLVKDYFPEPVTVSWNSGALTSGVHTFPAVLQSSGLYSLSSVVTVPSSSLGTQTYICNVNHKPSNTKVDKRVEPKSCDKTHTCPPCPAPEAAGGPSVFLFPPKPKDTLMISRTPEVTCVVVDVSHEDPEVKFNWYVDGVEVHNAKTKPREEQYNSTYRVVSVLTVLHQDWLNGKEYKCKVSNKALAAPIEKTISKAKGQPREPQVYTLPPSREEMTKNQVSLYCLVKGFYPSDIAVEWESNGQPENNYKTTPPVLDSDGSFFLYSKLTVDKSRWQQGNVFSCSVMHEALHNHYTQKSLSLSPGK
light 2: not shown
Turning to B2, the “EC50 value for pSTAT5 induction” value in test [1] was found to be 0.27 nM.

B3: 21A08Q (antibody, V domains shown)
VH: EVQLLESGGGLVQPGGSLRLSCAASGFTFSINAMTWVRQAPGKGLEWVSTISGSGFSTYYADSLKGRFTISRDNSKNTLYLQMNSLRAEDTAVYYCAKEVYGDYWGQGTLVTVSS
VL: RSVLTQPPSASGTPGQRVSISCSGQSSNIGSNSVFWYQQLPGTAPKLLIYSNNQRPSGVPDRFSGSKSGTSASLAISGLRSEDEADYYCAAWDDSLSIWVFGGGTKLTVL
notes: position not given
B3: in test [2], the Kd worked out at 3.39 nM and the koff came to 0.000267 s⁻¹.

B4: 21A08A (antibody, V domains shown)
VH: EVQLLESGGGLVQPGGSLRLSCAASGFTFSINAMTWVRQAPGKGLEWVSTISGSGFSTYYADSLKGRFTISRDNSKNTLYLQMNSLRAEDTAVYYCAKEVYGDYWGQGTLVTVSS
VL: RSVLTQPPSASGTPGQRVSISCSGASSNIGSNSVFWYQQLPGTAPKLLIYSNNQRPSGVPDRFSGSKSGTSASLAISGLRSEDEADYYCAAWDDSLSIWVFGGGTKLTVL
notes: position not given
For B4, in test [2], the Kd was determined as 1.81 nM and the koff was determined as 0.000181 s⁻¹. In test [3], this molecule gave a Kd of 1.7 nM, a koff of 9.6e-05 s⁻¹ and a kon of 56000 M⁻¹ s⁻¹. Moreover, in the test with hPD-1 His-tagged, the Kd was less than 0.16 nM, the dissociation rate constant (koff) is less than 1e-05 s⁻¹ and the kon is 63000 M⁻¹ s⁻¹.

B5: 21A08S (antibody, V domains shown)
VH: EVQLLESGGGLVQPGGSLRLSCAASGFTFSINAMTWVRQAPGKGLEWVSTISGSGFSTYYADSLKGRFTISRDNSKNTLYLQMNSLRAEDTAVYYCAKEVYGDYWGQGTLVTVSS
VL: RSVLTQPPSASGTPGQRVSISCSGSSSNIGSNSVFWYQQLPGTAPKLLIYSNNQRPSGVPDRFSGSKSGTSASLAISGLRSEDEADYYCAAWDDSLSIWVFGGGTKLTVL
notes: position not given; tested as supernatant
As for B5, in test [2], the Kd is 2.47 nM and the koff is 0.000184 s⁻¹.

B6: YPW986 (bispecific antibody, human IgG1, kappa, L234A L235A)
heavy 1: EVQLLESGGGLVQPGGSLRLSCAASGFTFSINAMTWVRQAPGKGLEWVSTISGSGFSTYYADSLKGRFTISRDNSKNTLYLQMNSLRAEDTAVYYCAKEVYGDYWGQGTLVTVSSASVAAPSVFIFPPSDEQLKSGTASVVCLLNNFYPREAKVQWKVDNALQSGNSQESVTEQDSKDSTYSLSSTLTLSKADYEKHKVYACEVTHQGLSSPVTKSFNRGECDKTHTCPPCPAPEAAGGPSVFLFPPKPKDTLMISRTPEVTCVVVDVSHEDPEVKFNWYVDGVEVHNAKTKPREEQYNSTYRVVSVLTVLHQDWLNGKEYKCKVSNKALAAPIEKTISKAKGQPREPQVYTLPPSREEMTKNQVSLTCLVKGFYPSDIAVEWESNGQPENNYKTTPPVLDSDGSFFLTSKLTVDKSRWQQGNVFSCSVMHEALHNHYTQKSLSLSPGK
light 1: RSVLTQPPSASGTPGQRVSISCSGASSNIGSQSVFWYQQLPGTAPKLLIYSNNQRPSGVPDRFSGSKSGTSASLAISGLRSEDEADYYCAAWDDSLSIWVFGGGTKLTVLSSASTKGPSVFPLAPSSKSTSGGTAALGCLVKDYFPEPVTVSWNSGALTSGVHTFPAVLQSSGLYSLSSVVTVPSSSLGTQTYICNVNHKPSNTKVDKRVEPKSC
heavy 2: EVQLVQSGAEVKKPGESLKISCKGSGYAFTNYLIEWVRQMPGKGLEWMGVINPGSGGTNYNEKFKGQVTISADKSISTAYLQWSSLKASDTAMYYCARWRGEGYYAYFDVWGQGTTVTVSSASTKGPSVFPLAPSSKSTSGGTAALGCLVKDYFPEPVTVSWNSGALTSGVHTFPAVLQSSGLYSLSSVVTVPSSSLGTQTYICNVNHKPSNTKVDKRVEPKSCDKTHTCPPCPAPEAAGGPSVFLFPPKPKDTLMISRTPEVTCVVVDVSHEDPEVKFNWYVDGVEVHNAKTKPREEQYNSTYRVVSVLTVLHQDWLNGKEYKCKVSNKALAAPIEKTISKAKGQPREPQVYTLPPSREEMTKNQVSLYCLVKGFYPSDIAVEWESNGQPENNYKTTPPVLDSDGSFFLYSKLTVDKSRWQQGNVFSCSVMHEALHNHYTQKSLSLSPGK
light 2: not shown
For the molecule B6, the “EC50 value for pSTAT5 induction” value in test [1] amounted to 43.9 nM.

Usually Kd stands for the concentration at which binding is half-saturated. The koff is the first-order rate constant of dissociation. One may read the kon as the rate constant with which the complex forms.
